The values below come from the supplement of paper PMC10567573.

± gives the standard deviation.

This data set can be described thus: protein stability index of a GFP-peptide fusion (GPS, HEK-293T) (PSI 1-6); higher = more stable.
[1] abbreviates: treatment: DMSO, c terminus: a fixed tail appended.
The mark [2] stands for this setting: treatment: MLN4924 1 uM, 8 h, c terminus: a fixed tail appended.
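Also: 24-mer peptide tiles fused after GFP, lentivirally expressed, FACS-sorted into six equal bins by GFP/DsRed ratio, decoded by Illumina sequencing, PSI is the read-weighted mean bin number.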

As to GGYFKAHIKFPIDYPYSPPTFRFL [UBE2R2], the protein stability index by setting is: under setting [1], 2.61 ± 0.96; under setting [2], 2.71 ± 0.52.
For the sequence MSYHSGSVFSARDRDPNSLLISCA [TNXB], the protein stability index by setting is: under setting [1], 2.51 ± 0.2; under setting [2], 2.44 ± 0.15.
For MQQSNLDPLSPMTASSLLSFAELF [FEM1C], the protein stability index reads like this: under setting [1], 2.83 ± 0.29; under setting [2], 2.52 ± 0.42.
Taken in the same sequence, the figures for CMFQEHKNHSTVTVEEAKAEKETE [TRIM29] were 5.52 ± 0.22 and 5.36 ± 0.24.
Regarding EDQYQFSYRAALEYLGSFDHYAT [PTPRD], the protein stability index is 2.61 ± 0.49 (treatment: DMSO, c terminus: native) and 2.69 ± 0.34 (treatment: MLN4924 1 uM, 8 h, c terminus: native).
IRKYNYVAMDTEFPGVVARPIGEF [CNOT7] registered a protein stability index under setting [1] of 2.21 ± 0.19 and a protein stability index under setting [2] of 2.16 ± 0.2.
The corresponding values for ILLESHMVMIRGNSGLKPKDNEFT [POMT2] are 2.21 ± 0.31 and 2.15 ± 0.21.
Taken in the same sequence, the figures for RLCAPLFRNIKQEPFSARVLVLCV [SOAT1] were 2.73 ± 0.84 and 2.85 ± 1.4.
Taken in the same sequence, the figures for LFLMECEESPNGSEGACEKEKQSR [RHOBTB1] were 4.69 ± 0.44 and 4.83 ± 0.17.
Turning to PSPQLDTQQEIKLCQKSNDISIHH [WDR41], the protein stability index came out at 4.41 ± 0.51 under setting [1] and 4.49 ± 0.05 under setting [2].
As for NMPKDHPVSCCLGLLLESLVPFIV [DYNC2LI1], the protein stability index runs as follows: under setting [1], 2.53 ± 0.23; under setting [2], 2.57 ± 0.5.
For the sequence DKTPVLLTDYPVDLDEIAYFTWAS [MYORG], the protein stability index runs as follows: under setting [1], 2.64 ± 0.36; under setting [2], 2.86 ± 0.4.
In the case of KFTQDNLCRAQRERLASANLRVLV [TEKT4], the protein stability index by setting is: under setting [1], 2.15 ± 0.57; under setting [2], 2.23 ± 0.26.
For the sequence QAWVQKHHPENGEETVTMLEDVER [ZNF396], the protein stability index under setting [1] was 5.1 ± 0.32 and the protein stability index under setting [2] worked out at 5.39 ± 0.17.
Take TLYLIVALATVSLLSLVTFTFLSA [PCDHGC5]: the protein stability index under setting [1] is 3.2 ± 0.13 and the protein stability index under setting [2] stood at 3.26 ± 0.29.
Taken in the same sequence, the figures for KRSSRRVQRHNSFSPNSPQFNVSG [NECAB1] were 4.12 ± 0.19 and 4.27 ± 0.13.
Taken in the same sequence, the figures for DLSRLVNCLTGEGEDTRLSASEMK [CIB1] were 3.5 ± 0.38 and 3.86 ± 0.28.
The corresponding values for WSQQIEESTTVVTTQSAEVGAAET [KRT18] are 5.5 ± 0.21 and 5.42 ± 0.14.
As to EHDRETRMQYAPDLMKRLRFALIP [KLHL14], the protein stability index under setting [1] came to 2.77 ± 0.26 and the protein stability index under setting [2] was 2.56 ± 0.16.
Taken in the same sequence, the figures for GEITQHNVTELLRDVAAWGRARAT [DNAAF3] were 3.11 ± 0.35 and 3.53 ± 0.5.
Taken in the same sequence, the figures for RRPEVDPLPFPGPFPAGPLAVAGG [ESRRA] were 3.56 ± 0.21 and 3.71 ± 0.24.
The corresponding values for LEQRGTHAVVGVATALAPLQTDHY [SPSB2] are 3.6 ± 0.31 and 3.65 ± 0.15.
As for DQFLEDVRLQERTSGGLLSEAPNE [NOP53], the protein stability index stood at 5.23 ± 0.13 under setting [1] and 5.38 ± 0.31 under setting [2].
Taken in the same sequence, the figures for KFNGITEKEYKTYKENFLKRFQLT [USP39] were 3.59 ± 0.12 and 3.86 ± 0.15.
The corresponding values for SSITEAVPSESEPPALQNNLLSPL [NFE2L1] are 4.75 ± 0.12 and 4.75 ± 0.21.
The corresponding values for EKPPRPEAKSAQPADGWKGERPRS [GCH1] are 5.2 ± 0.2 and 5.21 ± 0.11.
As for LLHLAVNSNTPVDDFHTNDVCSFP [FEM1B], the protein stability index is, setting by setting: under setting [1], 2.85 ± 0.25; under setting [2], 2.74 ± 0.12.
With CPLTPGPGKALGPAATMAVELHYE [C2CD2L], the protein stability index amounted to 3.67 ± 0.14 under setting [1] and 3.76 ± 0.28 under setting [2].
Taken in the same sequence, the figures for QGNSVDRMAAPRAEALFDFTGNSK [NCF4] were 4.7 ± 0.15 and 4.79 ± 0.17.
For the sequence TWSNQTQNIQSWSNHSWNTQTWCT [NANOGP8], the protein stability index runs as follows: under setting [1], 2.27 ± 0.15; under setting [2], 2.27 ± 0.26.
The corresponding values for AALEAAGEGLNVIQQTTRYFSTPQ [NANOGP8] are 3.3 ± 0.16 and 3.31 ± 0.25.
The corresponding values for WRGNGINVLKIAPESAIKFMAYEQ [SLC25A25] are 2.19 ± 0.29 and 2.36 ± 0.19.
The corresponding values for ALSTERELFAWGRGDSGRLGLGTR [NEK8] are 3.56 ± 0.17 and 3.46 ± 0.42.
As for CIDIVIRHVAPIPSHYDVQDRFRI [MOSPD3], the protein stability index is, setting by setting: under setting [1], 2.77 ± 0.61; under setting [2], 2.93 ± 0.55.
Taken in the same sequence, the figures for LLATAEQEQLSLSQRQAKELKLEQ [LRRC45] were 4.88 ± 0.21 and 5.02 ± 0.15.
Taken in the same sequence, the figures for PNFMKVIPAVSISYVVYENLKITL [SLC25A25] were 3.2 ± 0.4 and 3.46 ± 0.52.
Consider LWLRPETHTKEQILELVVLEQFVA [ZNF24], for which the protein stability index is 2.26 ± 0.61 under setting [1] and 2.35 ± 0.45 under setting [2].
The corresponding values for TEPWGGTAIRPLKILPWSPEKIGT [PNLIPRP1] are 3.45 ± 0.26 and 3.65 ± 0.36.
On to NILEKEVLPPIHAYGNRTECRNPQ [FEM1B], for which the protein stability index was found to be 4.03 ± 0.079 under setting [1] and 4.18 ± 0.11 under setting [2].
Taken in the same sequence, the figures for KTKKLYIDSRARRNLGSINTELQD [SEC22B] were 3.87 ± 0.22 and 4.08 ± 0.21.
The corresponding values for EASERFAAGYIQCMHEVHTFVSTC [HES6] are 2.21 ± 0.23 and 2 ± 0.36.
The corresponding values for IGATFTDWFTSYVKNVVSGGFPII [FBXO3] are 2.65 ± 0.84 and 2.7 ± 0.76.
Regarding RGAQGILLVYDITNRWSFDGIDRW [RAB40C], the protein stability index by setting is: under setting [1], 2.93 ± 0.91; under setting [2], 2.79 ± 0.42.
The corresponding values for GQREPGSLSRNNSFRRNVGRVLLA [FBXO34] are 3.11 ± 0.26 and 3.46 ± 0.21.
The corresponding values for AAAAAHSTPVRREVTDKEQEFAAR [EPB41L3] are 5.28 ± 0.47 and 5.18 ± 0.56.
Taken in the same sequence, the figures for ASYDKTVRAWDLETGKLLWKVRYD [WDR88] were 2.31 ± 0.4 and 2.14 ± 0.31.
Consider AQEEEEEDQGRTRKRKQSGHSPAR [DDIT3], for which the protein stability index under setting [1] was 5.47 ± 0.31 and the protein stability index under setting [2] is 5.7 ± 0.24.
With KASGRFGLLQGTSAETSGGLLICL [SEPHS2], the protein stability index amounted to 2.53 ± 0.83 under setting [1] and 2.41 ± 0.69 under setting [2].
For the sequence HVINQGMAMYWGTSRWSSMEIMEA [KCNAB2], the protein stability index runs as follows: under setting [1], 2.67 ± 0.53; under setting [2], 2.42 ± 0.21.
The corresponding values for TKKGDLQWNAGEKKLTGGANWQPK [SNAP91] are 4.07 ± 0.13 and 4.26 ± 0.23.
The corresponding values for KGGQDVKKKVHLSEKIHPFIRKSI [PRIM1] are 3.85 ± 0.53 and 3.59 ± 0.48.
KEISDDEAEEEKGEKEEEDKDDEE [HSP90AB1]: the protein stability index under setting [1] stood at 5.66 ± 0.34 and the protein stability index under setting [2] was 5.68 ± 0.19.
For FLEEDNYKNIKRPPGDIMFLLVQR [USP39], the protein stability index is, setting by setting: under setting [1], 2.23 ± 0.37; under setting [2], 2.11 ± 0.27.
The corresponding values for PVPTGFFNMWGFGRVSKQASQPVK [WDR41] are 2.84 ± 0.25 and 2.8 ± 0.21.
As to MKEQDLMCIKLHGVSKVGLRKIID [KLHL13], the protein stability index reads like this: under setting [1], 2.18 ± 0.53; under setting [2], 2.15 ± 0.44.
The corresponding values for VSAQYLSEIEMAKAQRDYELKKAA [FLOT1] are 4.34 ± 0.22 and 4.54 ± 0.14.
Taken in the same sequence, the figures for TTLKGHEGSVACLWWDPIQRLLFS [WDFY1] were 2.08 ± 0.27 and 2.35 ± 0.39.
Taken in the same sequence, the figures for FYMEEGVPYCERDYEKMFGTKCHG [PDLIM7] were 2.78 ± 0.4 and 3.19 ± 0.31.
As to YLNLDTWEWNELIPQGICPVGRSW [KLHDC2], the protein stability index reads like this: under setting [1], 2.79 ± 1.1; under setting [2], 2.39 ± 0.42.
The corresponding values for ASCLQELFKAHFRGEVLPEEITEE [INTS3] are 3.71 ± 0.34 and 3.95 ± 0.12.
The corresponding values for EELKAELVQLEDEITTLRQVLSAK [TPD52L1] are 4.34 ± 0.32 and 4.22 ± 0.28.
The corresponding values for SRIQEWYEFQIPYICPDYQSYFKT [KRT36] are 2.29 ± 0.31 and 2.17 ± 0.36.
Turning to SFSRPADLDLIQSTPFKPLALKTP [MFF], the protein stability index is, setting by setting: under setting [1], 3.19 ± 0.46; under setting [2], 3.5 ± 0.048.
Regarding SLTDISQPTIVEALLGYEMVQVAC [NEK8], the protein stability index under setting [1] came to 2.73 ± 0.64 and the protein stability index under setting [2] turned out to be 2.4 ± 0.5.
For TVPEILVHNIVIFMRTSVKISYIG [TMEM106C], the protein stability index is, setting by setting: under setting [1], 3.01 ± 0.38; under setting [2], 3.11 ± 0.29.
Taken in the same sequence, the figures for DRPMFMLQCAMEENCLSASAAQTD [LOXL2] were 2.38 ± 0.52 and 1.94 ± 0.19.
The corresponding values for RQETVDCLKKFNARRKLKGAILTT [CAMK2A] are 3.15 ± 0.26 and 3.33 ± 0.24.
The corresponding values for PASEKKPVPPSEGKSRLSPAGEMK [BCL2L13] are 5.28 ± 0.19 and 5.27 ± 0.084.
With GCYAYRQNPEAIAAAAMYTFLPDN [MYORG], the protein stability index is 2.61 ± 0.34 under setting [1] and 2.46 ± 0.29 under setting [2].
Taken in the same sequence, the figures for ELFSYLRNRGRFSSTTGLFYSAEI [PRKX] were 2.36 ± 0.84 and 2.44 ± 1.3.
Taken in the same sequence, the figures for AILVKVQLDALPFFVITMIKIVLI [SLC29A1] were 3.23 ± 0.22 and 3.23 ± 0.37.
The corresponding values for KRLKHKDDSVMKATQQARKRNFIS [C22orf31] are 4.11 ± 0.27 and 4.19 ± 0.23.
